Read-outs that look alike come from different tables or passages of the source.
How the values were obtained:
[1] = tested on: d22_PeDa01 (Pseudomonas entomophila)
[2] = tested on: EcDa01 (Escherichia coli)
[3] = 5caC at all four C of the listed strand sites
[4] = 5fC at all four C of the listed strand sites

With “AAATTTAATTATAAAACGATCGACGACGAAATAATAAAAA (double strand) [40 bp 5caC oligo]” the activity (fraction deaminated) [1, 3] was 0 and the activity (fraction deaminated) [2, 3] was 0.

For “AAATTTAATTATAAAACGATCGACGACGAAATAATAAAAA (double strand) [40 bp 5fC oligo]”, the activity (fraction deaminated) [1, 4] was 0 and the activity (fraction deaminated) [2, 4] was 0.01.

In the case of “AAATTTAATTATAAAACGATCGACGACGAAATAATAAAAA (double strand) [40 bp control C oligo]”, the activity (fraction deaminated) [1] is reported as 0.14 and the activity (fraction deaminated) [2] is reported as 0.6.

From US20230357838
